# Experimental data reported in article PMC8459933.
# How the values were obtained:
# [1] = biological target: tagless PltB pentamer (Salmonella enterica serovar Typhi); test: SEC
# [2] = biological target: PltB subunit of typhoid toxin (Salmonella enterica serovar Typhi); test: cryo-EM structure
substance,measurement,setting,value
tagless PltB pentamer (natural protein),stoichiometry N,[1],5
PltB subunit of typhoid toxin (natural protein),stoichiometry N,[2],5
